Assay results from PMC11621151.

Columns and labels:
Experiment in all cases: SPR
[1] = molecular target: rat neonatal Fc receptor (FcRn) (rat) (UniProt P13599)
[2] = molecular target: human neonatal Fc receptor (FcRn) (human) (UniProt P55899)
[3] = molecular target: monkey neonatal Fc receptor (FcRn) (monkey) (UniProt Q8SPV9)
[4] = molecular target: rabbit neonatal Fc receptor (FcRn) (rabbit)
[5] = molecular target: mouse neonatal Fc receptor (FcRn) (mouse) (UniProt Q61559)

Kd [1]: 1.89 nM | Kd [2]: 8.56 nM | Kd [3]: 14.5 nM | Kd [4]: 310 nM | Kd [5]: 0.63 nM
Substance: Efgartigimod (domain or fragment)
